Results published in patent US20110130449.

Key:
[1] = system: AR(me2sym)TKQTARKSTGGKAPPK
[2] = system: AR(me2asym)TKQTARKSTGGKAPPK

| Substance | hydroxylation of the peptide by Jmjd6 (peptide g) | hydroxylation of the peptide by Jmjd6 (peptide f) | activity (hydroxylation of the peptide by Jmjd6, MALDI-TOF MS) [1] | Jmj6 hydroxylation activity (standard assay, MALDI-TOF MS) (NPKRSRSREHRR (peptide d)) | position of hydroxylation (MS/MS) (NPKRSRSREHRR (peptide d)) | activity (hydroxylation of the peptide by Jmjd6, MALDI-TOF MS) [2] | hydroxylation of the peptide (MALDI-TOF MS), large scale (NPKRSRSREHRR (peptide d)) |
| --- | --- | --- | --- | --- | --- | --- | --- |
| N-terminally His6-tagged human Jmjd6 (residues 1-343) | Peptides f and g, which do not contain any lysine residues, were not hydroxylated by Jmjd6. | Peptides f and g, which do not contain any lysine residues, were not hydroxylated by Jmjd6. | Double hydroxylation no demethylation | both the truncated Jmjd6 polypeptides and full-length Jmjd6 hydroxylated peptide d | consistent with the hydroxylation of lysine-3 in peptide d, corresponding to lysine 269 in LUC-like2 | Double hydroxylation no demethylation |  |
| full-length Jmjd6 (recombinant) |  |  |  | both the truncated Jmjd6 polypeptides and full-length Jmjd6 hydroxylated peptide d |  |  | leaving the assay mixture overnight at room temperature till peptide showed complete hydroxylation |
